Assay results reported in patent US20250188139A1 (published 2025).
Positions count from the first letter of the chain named.

T1: Human VEGFR-3 extracellular domain (amino acids 25-329), AviTag, hexahistidine tag, biotinylated (human, UniProt P35916 25-329, biotinylated with BirA ligase (AviTag))
T1 chain (part 1 of 2): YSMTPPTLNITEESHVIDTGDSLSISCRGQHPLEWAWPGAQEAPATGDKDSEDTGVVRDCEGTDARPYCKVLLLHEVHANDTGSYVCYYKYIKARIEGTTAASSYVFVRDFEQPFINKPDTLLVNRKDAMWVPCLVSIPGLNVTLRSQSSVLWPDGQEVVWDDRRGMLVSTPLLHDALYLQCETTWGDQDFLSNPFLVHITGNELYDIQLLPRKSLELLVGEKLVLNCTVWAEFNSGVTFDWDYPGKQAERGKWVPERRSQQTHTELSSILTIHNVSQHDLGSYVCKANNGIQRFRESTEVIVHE
T1 chain (part 2 of 2): HHHHHH

B1: Clone 15 (protein)
chain: NTEILKSIDNEWRKTQCMPREVAIDVGKEFGVATNTFFKPPCVSVYRCGGCCISEGLQCMNTSTSYLSKTLFEITVPISQGPKPVTISFANHTSCRCMSKL
B2: Clone 16 (protein)
chain: B1 chain with S54G
B3: Clone 10 (protein)
chain: B1 chain with I53Q, S54G
B4: Clone 19 (protein)
chain: B1 chain with I53N, S54G, I78L
B5: Clone 9 (protein)
chain: B1 chain with I53Q
B6: Clone 31 (protein)
chain: B1 chain with I53H, I78L
B7: Clone 8 (protein)
chain: B1 chain with I53Q, S54G, I78L
B8: Clone 14 (protein)
chain: B1 chain with S54G, I78L
B9: Clone 39 (protein)
chain: B1 chain with S54R, I78L
B10: Clone 7 (protein)
chain: B1 chain with I53Q, I78L
B11: WT VEGFC (protein)
chain: B1 chain with A23C, I53N, I78L
B12: Clone 21 (protein)
chain: B1 chain with I53N, S54G
B13: Clone 13 (protein)
chain: B1 chain with I78L
B14: WT (ligand)
chain: B1 chain with A23C, V32A, I53N, S65G, I78L

Target: T1, Human VEGFR-3 extracellular domain …
Test: yeast display flow cytometry binding

Row | EC50 [nM] | Binder
1 | 21.5 | B1
2 | 36.8 | B2
3 | 65.5 | B3
4 | 51.3 | B4
5 | 65.7 | B5
6 | 94.5 | B6
7 | 124 | B7
8 | 74.5 | B8
9 | 104 | B9
10 | 71 | B10
11 | 34.8 | B11
12 | 44.8 | B12
13 | 32.3 | B13

target: VEGFR2; test: SPR

Row | Kd [nM] | Binder
14 | 0.227 | B14

target: VEGFR3; test: SPR

Row | Kd [nM] | Binder
15 | 0.0107 | B14
